Data taken from patent US20210070872A1 (AGENUS, published 2021).
Residue numbers refer to the chain shown, from its start.

T1: biotinylated GITR (human, UniProt Q9Y5U5 26-161, limits assumed, biotinylated (sites not given))
T1 construct: also called GITR-bio; Biotin-GITR
T1 sequence: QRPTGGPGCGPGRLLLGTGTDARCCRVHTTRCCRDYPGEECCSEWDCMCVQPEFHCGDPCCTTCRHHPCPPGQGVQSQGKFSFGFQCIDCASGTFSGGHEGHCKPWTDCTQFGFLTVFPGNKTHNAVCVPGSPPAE

B1: germline variant antibody 10 (H1916A11 / K1916A11) (antibody, V domains shown)
VH: QVQLVQSGAEVKKPGASVKVSCKASGYTFTEYAMYWVRQAPGQGLEWMGLIRTYSGGVSYNQKFRGRVTMTVDKSISTAYMELSRLRSDDTAVYYCAKSGTVRGFAYWGQGTLVTVSS
VL: DIVMTQSPDSLAVSLGERATINCKSSQSLLNSSNQKNYLSWYQQKPGQPPKLLIYWASTRESGVPDRFSGSGSGTDFTLTISSVQAEDVAVYHCQNDYSYPYTFGQGTKLEIK
notes: IGHG1/IGKC expression vectors; measured from CHO culture supernatant; also called Antibody ID 10
B2: germline variant antibody 15 (H1916B05 / K1916B05) (antibody, V domains shown)
VH: B1 VH with A24G, E31D, M48I, L50V, Y54F, G57D, G66E, V68A
VL: B1 VL with S33G, S69T, V84L
notes: IGHG1/IGKC expression vectors; measured from CHO culture supernatant; also called Antibody ID 15
B3: germline variant antibody 1 (H1916A01 / K1916A01) (antibody, V domains shown)
VH: B1 VH with A9T, A24G, M48I, L50V, S59T, R65Q, V68A, K74T
VL: B1 VL with S33G, S40T, Q43H, L52M
notes: IGHG1/IGKC expression vectors; measured from CHO culture supernatant; also called Antibody ID 1
B4: germline variant antibody 16 (H1916B06 / K1916B06) (antibody, V domains shown)
VH: B1 VH with A9T, E31G, M48I, Y54F, S59T, G66E
VL: B1 VL with S33G, S40T, Q43H, S69T
notes: IGHG1/IGKC expression vectors; measured from CHO culture supernatant; also called Antibody ID 16
B5: germline variant antibody 61 (H1917A02 / K1917A02) (antibody, V domains shown)
VH: B1 VH with A9T, Y35H, R65Q, G66E
VL: B1 VL with S33G, H93Y, Y100F
notes: IGHG1/IGKC expression vectors; measured from CHO culture supernatant; also called Antibody ID 61
B6: germline variant antibody 6 (H1916A07 / K1916A07) (antibody, V domains shown)
VH: B1 VH with A24G, Y54F, R65K, V68A, K74T
VL: B1 VL with S33G, L52M, S69T, V84L
notes: IGHG1/IGKC expression vectors; measured from CHO culture supernatant; also called Antibody ID 6
B7: germline variant antibody 11 (H1916Al2 / K1916A12) (antibody, V domains shown)
VH: B1 VH with A24G, E31D, Y35H, K74T
VL: B1 VL with Y100F
notes: IGHG1/IGKC expression vectors; measured from CHO culture supernatant; also called Antibody ID 11
B8: germline variant antibody 9 (H1916A10 / K1916A10) (antibody, V domains shown)
VH: B1 VH with E31G, G57E, V68A
VL: B1 VL with S33G, S40T, L52M, V84L, Y100F
notes: IGHG1/IGKC expression vectors; measured from CHO culture supernatant; also called Antibody ID 9
B9: germline variant antibody 45 (H1916E05 / K1916E05) (antibody, V domains shown)
VH: B1 VH with A24G, M48I, R65Q, K74T, L113F
VL: B1 VL with S33G, Q43H, S69T, H93Y, Y100F
notes: IGHG1/IGKC expression vectors; measured from CHO culture supernatant; also called Antibody ID 45
B10: germline variant antibody 25 (H1916C07 / K1916C07) (antibody, V domains shown)
VH: B1 VH with Y54F, V68A, K74T
VL: B1 VL with S33G, S40T, L52M, S69T, H93Y, Y100F
notes: IGHG1/IGKC expression vectors; measured from CHO culture supernatant; also called Antibody ID 25
B11: germline variant antibody 58 (H1916G04 / K1916G04) (antibody, V domains shown)
VH: B1 VH with A24G, E31D, L50V, S59T, R65K, V68A
VL: B1 VL with S33G, Q43H
notes: IGHG1/IGKC expression vectors; measured from CHO culture supernatant; also called Antibody ID 58
B12: germline variant antibody 71 (H1917B07 / K1917B07) (antibody, V domains shown)
VH: B1 VH with E31G, L45M, L50V, Y54F, S59T, V68A, K74T
VL: B1 VL with S40T, S69T
notes: IGHG1/IGKC expression vectors; measured from CHO culture supernatant; also called Antibody ID 71
B13: germline variant antibody 75 (H1917C09 / K1917C09) (antibody, V domains shown)
VH: B1 VH with A9T, A24G, E31G, M48I, L50V, S59T, R65Q
VL: B1 VL with S33G, Q43H, S69T, V84L, H93Y
notes: IGHG1/IGKC expression vectors; measured from CHO culture supernatant; also called Antibody ID 75
B14: germline variant antibody 76 (H1917C10 / K1917C10) (antibody, V domains shown)
VH: B1 VH with E10G, A24G, E31D, Y35H, Y54F, G57D, G66E, V68A
VL: B1 VL with S33G, L52M, Y100F
notes: IGHG1/IGKC expression vectors; measured from CHO culture supernatant; also called Antibody ID 76
B15: germline variant antibody 54 (H1916F09 / K1916F09) (antibody, V domains shown)
VH: B1 VH with Y35H, R65Q, V68A, K74T
VL: B1 VL with S40T, S69T, Y100F
notes: IGHG1/IGKC expression vectors; measured from CHO culture supernatant; also called Antibody ID 54
B16: germline variant antibody 50 (H1916F03 / K1916F03) (antibody, V domains shown)
VH: B1 VH with A9T, E31D, M48I, Y54F, R65K, G66E
VL: B1 VL with S40T, L52M, V84L, H93Y
notes: IGHG1/IGKC expression vectors; measured from CHO culture supernatant; also called Antibody ID 50
B17: germline variant antibody 39 (H1916D09 / K1916D09) (antibody, V domains shown)
VH: B1 VH with A24G, E31G, Y35H, G66E, V68A, K74T, V114I
VL: B1 VL with S40T, S69T, D97E, Y100F
notes: IGHG1/IGKC expression vectors; measured from CHO culture supernatant; also called Antibody ID 39

What follows are binders tested against T1, biotinylated GITR (assay: BLI (Octet), biotin-GITR on streptavidin tips, antibody supernatant).
Description: Several hundred germlined antibodies were selected based on binding kinetics as determined by Octet measurements (Octet RED 96 system; ForteBio™ Inc., Menlo Park, Calif.). The experimental procedure was configured according to the instruction manual of the instrument. Biotin-GITR was bound to Streptavidin biosensor (SA) and PBS (pH 7.4) was used as a blank control. Briefly, the interaction analyses were conducted at 30° C. in running buffer (PBS, 0.05% Tween, pH7.4). Sensor tips were pre-wet for 10 minutes in running buffer immediately prior to use, and the micro plates used in the Octet were filled with 200 μl of sample or buffer per well and agitated at 800 rpm. For the experiments, commercially available precoated SA tips were used. Biotinylated GITR was loaded onto the ForteBio SA fibers in PBS pH7.4 for 10 minutes and washed for 4 minutes. For the association phase, the ligand-coated SA tips were immersed for 5 minutes in cell culture supernatant that was diluted 1:10 in running buffer prior to the measurement. Dissociation of the antibody-antigen complex was measured in wells containing the Octet buffer alone for 5 minutes. After each run, the tips were regenerated with Glycine (10 mM, pH 2.0). Affinity, Kₒₙ and Koff were determined with Octet evaluation software v6.3 using a 1:1 binding model with local full fitting.

Kd | koff | kon | Binder
0.911 nM | 0.00056 s⁻¹ | 615000 M⁻¹ s⁻¹ | B1
2.22 nM | 0.000616 s⁻¹ | 278000 M⁻¹ s⁻¹ | B2
0.744 nM | 0.000348 s⁻¹ | 468000 M⁻¹ s⁻¹ | B3
1.47 nM | 0.000523 s⁻¹ | 356000 M⁻¹ s⁻¹ | B4
1.83 nM | 0.00141 s⁻¹ | 772000 M⁻¹ s⁻¹ | B5
2.7 nM | 0.000579 s⁻¹ | 214000 M⁻¹ s⁻¹ | B6
2.1 nM | 0.000847 s⁻¹ | 403000 M⁻¹ s⁻¹ | B7
2.68 nM | 0.000784 s⁻¹ | 293000 M⁻¹ s⁻¹ | B8
0.562 nM | 0.000255 s⁻¹ | 455000 M⁻¹ s⁻¹ | B9
1.69 nM | 0.000632 s⁻¹ | 374000 M⁻¹ s⁻¹ | B10
1.58 nM | 0.000415 s⁻¹ | 263000 M⁻¹ s⁻¹ | B11
0.241 nM | 0.000252 s⁻¹ | 1.05e+06 M⁻¹ s⁻¹ | B12
2.92 nM | 0.000925 s⁻¹ | 317000 M⁻¹ s⁻¹ | B13
2.72 nM | 0.00105 s⁻¹ | 386000 M⁻¹ s⁻¹ | B14
1.26 nM | 0.000688 s⁻¹ | 548000 M⁻¹ s⁻¹ | B15
1.01 nM | 0.000254 s⁻¹ | 252000 M⁻¹ s⁻¹ | B16
0.255 nM | 0.000997 s⁻¹ | 3.91e+06 M⁻¹ s⁻¹ | B17
